Laboratory results: PMC4909229, “Characterization of Staphylococcus aureus Primosomal DnaD Protein: Highly Conserved C-Terminal Region Is Crucial for ssDNA and PriA Helicase Binding but Not for DnaA Protein-Binding and Self-Tetrameri”
Values joined by “and” are separate entries in the source; they are usually repeats but may differ in a detail not shown here. Equal entries are not always repeated.

Assays:
[1] = molecular target: Staphylococcus aureus PriA helicase (SaPriA) (Staphylococcus aureus subsp. aureus ED98)
[2] = molecular target: Staphylococcus aureus PriA helicase (SaPriA) (Staphylococcus aureus subsp. aureus ED98); remark: listed apart in the source
[3] = molecular target: Staphylococcus aureus PriA helicase (SaPriA) (Staphylococcus aureus subsp. aureus ED98); remark: listed apart in the source
[4] = molecular target: Staphylococcus aureus DnaA (SaDnaA) (Staphylococcus aureus subsp. aureus ED98); experiment: SPR; SaPriA or SaDnaA immobilised on CM5 chips, Biacore T200, 293 K, 40 mM Tris, 200 mM NaCl, 0.05% Tween-20, pH 8.0; SaDnaD solutions 7.6-250 nM as analyte; 1:1 (Langmuir) model
SaDnaD1-195 = molecular target: T1, SaDnaD1-195 (Staphylococcus aureus subsp. aureus ED98, UniProt Q9EUT0 1-195, del196-228); experiment: SEC; Superdex 200 HR 10/30, Buffer B (20 mM HEPES, 100 mM NaCl, pH 7.0), purified protein 2 mg/mL (methods; 4 mg/mL in the results for SaDnaD), calibrated with standard proteins; oligomer size from the estimated native mass
T1 sequence: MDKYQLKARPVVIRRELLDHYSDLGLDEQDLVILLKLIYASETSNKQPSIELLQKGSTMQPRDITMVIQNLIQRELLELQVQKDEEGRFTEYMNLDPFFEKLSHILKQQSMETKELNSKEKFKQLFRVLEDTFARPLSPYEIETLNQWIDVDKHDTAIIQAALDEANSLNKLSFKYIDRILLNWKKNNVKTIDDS

[5] = molecular target: Staphylococcus aureus PriA helicase (SaPriA) (Staphylococcus aureus subsp. aureus ED98); experiment: SPR; SaPriA or SaDnaA immobilised on CM5 chips, Biacore T200, 293 K, 40 mM Tris, 200 mM NaCl, 0.05% Tween-20, pH 8.0; SaDnaD solutions 7.6-250 nM as analyte; 1:1 (Langmuir) model
SaDnaD1-200 = molecular target: T2, SaDnaD1-200 (Staphylococcus aureus subsp. aureus ED98, UniProt Q9EUT0 1-200, del201-228); experiment: SEC; Superdex 200 HR 10/30, Buffer B (20 mM HEPES, 100 mM NaCl, pH 7.0), purified protein 2 mg/mL (methods; 4 mg/mL in the results for SaDnaD), calibrated with standard proteins; oligomer size from the estimated native mass
T2 sequence: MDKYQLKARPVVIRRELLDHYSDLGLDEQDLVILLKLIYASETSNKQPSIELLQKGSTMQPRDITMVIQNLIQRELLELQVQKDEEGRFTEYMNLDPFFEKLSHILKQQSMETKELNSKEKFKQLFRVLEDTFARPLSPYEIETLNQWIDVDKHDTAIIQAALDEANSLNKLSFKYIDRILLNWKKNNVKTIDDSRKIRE

SaDnaD1-204 = molecular target: T3, SaDnaD1-204 (Staphylococcus aureus subsp. aureus ED98, UniProt Q9EUT0 1-204, del205-228); experiment: as above
T3 sequence: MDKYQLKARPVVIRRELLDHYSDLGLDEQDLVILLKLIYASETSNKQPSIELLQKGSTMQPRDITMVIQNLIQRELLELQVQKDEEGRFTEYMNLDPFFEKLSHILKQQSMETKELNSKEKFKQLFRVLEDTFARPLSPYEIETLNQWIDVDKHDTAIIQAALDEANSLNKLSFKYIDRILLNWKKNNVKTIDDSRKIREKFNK

[6] = molecular target: Staphylococcus aureus DnaD (SaDnaD) (Staphylococcus aureus subsp. aureus ED98) (UniProt Q9EUT0); experiment: as above
SaDnaD [7] = molecular target: T4, SaDnaD (Staphylococcus aureus subsp. aureus ED98, UniProt Q9EUT0 1-228); experiment: EMSA; EMSA: 20 mM Tris-HCl pH 8.0, 100 mM NaCl, 25 C, 30 min, 1.7 nM DNA, gel at 4 C in TBE; fluorescence: 20 mM Tris-HCl pH 8.0, 200 or 500 mM NaCl, 0.1 uM tetramer; details: protein: recombinant; tags: C-terminal His tag (pET21e); chain copies: 4; label: 5'-32P
T4 sequence: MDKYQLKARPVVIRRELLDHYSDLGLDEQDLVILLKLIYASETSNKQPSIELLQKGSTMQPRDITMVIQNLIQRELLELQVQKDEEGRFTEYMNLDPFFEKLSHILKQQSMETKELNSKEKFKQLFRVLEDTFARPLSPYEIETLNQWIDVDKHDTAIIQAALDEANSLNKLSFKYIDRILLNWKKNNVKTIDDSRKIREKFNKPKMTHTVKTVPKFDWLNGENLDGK

SaDnaD [8] = molecular target: T4, SaDnaD; experiment: EMSA; two complexes summed; EMSA: 20 mM Tris-HCl pH 8.0, 100 mM NaCl, 25 C, 30 min, 1.7 nM DNA, gel at 4 C in TBE; fluorescence: 20 mM Tris-HCl pH 8.0, 200 or 500 mM NaCl, 0.1 uM tetramer; details: protein: recombinant, tags: C-terminal His tag (pET21e), chain copies: 4

Molecule: SaDnaD1-195 (from UniProt Q9EUT0 1-195) (domain or fragment)
- Fold of Vmax/Km of SaPriA ATPase with tag-free SaDnaD1-195 (10 μM) against PriA alone [1]: 1.2 fold
- SaPriA ATPase activity with His-tagged SaDnaD1-195 (10 μM), stimulation over SaPriA alone [2]: 2 fold
- SaPriA ATPase activity with tag-free SaDnaD1-195 (10 μM), stimulation over SaPriA alone [3]: 2 fold
- Kd [4]: 150 nM
- stoichiometry N (SaDnaD1-195): 4

Molecule: SaDnaD1-200 (from UniProt Q9EUT0 1-200) (domain or fragment)
- Kd [5]: 26 nM
- stoichiometry N (SaDnaD1-200): 4

Molecule: SaDnaD1-204 (from UniProt Q9EUT0 1-204) (domain or fragment)
- Kd [5]: 11 nM
- stoichiometry N (SaDnaD1-204): 4

Molecule: Staphylococcus aureus DnaD (SaDnaD) (from UniProt Q9EUT0 1-228) (natural protein)
- Fold of Vmax/Km of SaPriA ATPase with tag-free SaDnaD (10 μM) against PriA alone [1]: 5.3 fold
- SaPriA ATPase activity with His-tagged SaDnaD (10 μM), stimulation over SaPriA alone [2]: 12 fold
- SaPriA ATPase activity with tag-free SaDnaD (10 μM), stimulation over SaPriA alone [3]: 11 fold and 12 fold
- Kd [4]: 17 nM
- Kd [5]: 2 nM
- stoichiometry N [6]: 4

Molecule: tag-free SaDnaDY176A mutant protein (from UniProt Q9EUT0 1-228) (natural protein)
- Fold of Vmax/Km of SaPriA ATPase with tag-free SaDnaDY176A (10 μM) against PriA alone [1]: 5.1 fold

Molecule: TTTTTTTTTTTTTTTTTTTTTTTTTTTTTTTTTTTTTTTTTTTTT (ssDNA) [dT45]
- apparent K (half saturation) (SaDnaD [7]): 2000 ± 200 nM

B1: dT55 (ssDNA)
DNA: TTTTTTTTTTTTTTTTTTTTTTTTTTTTTTTTTTTTTTTTTTTTTTTTTTTTTTT
- apparent K (half saturation) (SaDnaD [7]): 1400 ± 100 nM

Molecule: TTTTTTTTTTTTTTTTTTTTTTTTT (ssDNA) [dT25]
- apparent K (half saturation) (SaDnaD [7]): 4700 ± 800 nM

B2: dT65 (ssDNA)
DNA: TTTTTTTTTTTTTTTTTTTTTTTTTTTTTTTTTTTTTTTTTTTTTTTTTTTTTTTTTTTTTTTTT
- apparent K (half saturation) (SaDnaD [8]; label: 5'-32P (EMSA), unlabeled in fluorescence titration): 500 ± 100 nM

Molecule: TTTTTTTTTTTTTTTTTTTTTTTTTTTTTTTTTTT (ssDNA) [dT35]
- apparent K (half saturation) (SaDnaD [7]): 2200 ± 300 nM

B3: dT60 (ssDNA)
DNA: TTTTTTTTTTTTTTTTTTTTTTTTTTTTTTTTTTTTTTTTTTTTTTTTTTTTTTTTTTTT
- apparent K (half saturation) (SaDnaD [8]; label: 5'-32P): 1500 ± 100 nM
